Experiments:
[1] = biological target: purified HLA A*0201 molecules (with human β2-microglobulin) (human (endogenous in EBV transformed cell lines) | human); assay: radioligand binding
PBMC = assay type: cell-based, human
[2] = system: T cells from healthy donors; conditions: heteroclitic HLA-A0201-restricted epitope; cited from earlier work

## HCV NS3 1406-1415 epitope peptide … (Lp5)
[1]
  IC50: 5 nM

## phytohemmaglutinin [PHA]
PBMC
  response in positive control: uniformly positive

B1: Melan-A epitope (L26–35): heteroclitic HLA-A0201-restricted Melan-A epitope (peptide, UniProt Q16655 1-118, looked up, variant A27L)
Melanoma antigen recognized …: MPREDAHFIYGYPKKGHGHSYTTAEELAGIGILTVILGVLLLIGCWYCRRRNGYRALMDKSLHVGTQCALTRRCPQEGFDHRDSKVSLQEKNCEPVVPNAPPAYEKLSAEQSPPPYSP
modifications: epitope 26-35
[2]
  frequency of T cells recognizing the epitope: relatively frequent

Source: PMC2742502 (Journal of immunology (Baltimore, Md. : 1950), 2008)
